Data from article doi:10.1101/2023.08.25.554718, “Structural mechanism of synergistic targeting of the CX3CR1 nucleosome by PU.1 and C/EBPα”.

Assays:
MBP-DBD C/EBPalpha = MBP-DBD C/EBPalpha (UniProt P53566 214-359); experiment: EMSA; 5 uM DNA; MBP fusion assumed; EMSA: 20 mM HEPES pH 7.3, 150 mM NaCl, 0.5 mM TCEP, 30 min room temperature, 0.5 uM nucleosome or DNA; FRET: 20 mM HEPES pH 7.1, 100 mM NaCl, 0.5 mM TCEP, 200 nM nucleosome; conditions: protein: recombinant; tags: N-terminal MBP; chain copies: 2; blunt
Sequence of MBP-DBD C/EBPalpha (P53566 214-359): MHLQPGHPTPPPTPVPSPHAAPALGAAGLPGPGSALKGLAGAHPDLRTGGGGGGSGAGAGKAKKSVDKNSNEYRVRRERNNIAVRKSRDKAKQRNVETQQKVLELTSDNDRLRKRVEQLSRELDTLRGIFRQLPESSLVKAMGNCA

PU.1 full-length = PU.1 full-length (mouse, UniProt P17433 1-272); experiment: EMSA; EMSA: 20 mM HEPES pH 7.3, 150 mM NaCl, 0.5 mM TCEP, 30 min room temperature, 0.5 uM nucleosome or DNA; FRET: 20 mM HEPES pH 7.1, 100 mM NaCl, 0.5 mM TCEP, 200 nM nucleosome; conditions: protein: recombinant; tags: N-terminal His
PU.1 ETS Q218H = PU.1 ETS Q218H (mouse, UniProt P17433 165-272, Q218H); experiment: EMSA; little effect of Q218H; EMSA: 20 mM HEPES pH 7.3, 150 mM NaCl, 0.5 mM TCEP, 30 min room temperature, 0.5 uM nucleosome or DNA; FRET: 20 mM HEPES pH 7.1, 100 mM NaCl, 0.5 mM TCEP, 200 n
PU.1 ETS (ETSPU.1) = PU.1 ETS (ETSPU.1) (mouse, UniProt P17433 165-272); experiment: EMSA; EMSA: 20 mM HEPES pH 7.3, 150 mM NaCl, 0.5 mM TCEP, 30 min room temperature, 0.5 uM nucleosome or DNA; FRET: 20 mM HEPES pH 7.1, 100 mM NaCl, 0.5 mM TCEP, 200 n

| Binder | binding result (MBP-DBD C/EBPalpha) | binding result (PU.1 full-length) | binding result (PU.1 ETS Q218H) | binding result (PU.1 ETS (ETSPU.1)) |
| --- | --- | --- | --- | --- |
| 20 bp C/EBPalpha site DNA (dsDNA) DNA 1: ATCTTCAGCTGGTTGCTGAG DNA 2: CTCAGCAACCAGCTGAAGAT | binds | – | – | – |
| 162 bp CX3CR1 DNA (dsDNA) DNA 1: TAGGTGCAGGGCCTCTCGGCTGCTGATCTTCAGCTGGTTGCTGAGAGTTGCAGCATTGCTGAGTCTTAGCAATGGATACTTCCCGATTCCCCTCACAAAAATAGGTCAGTCTGTCTGGCTAGTTCTGTACTTGCAGACACAGGGCATGTGGGGTTCCTATTT DNA 2: AAATAGGAACCCCACATGCCCTGTGTCTGCAAGTACAGAACTAGCCAGACAGACTGACCTATTTTTGTGAGGGGAATCGGGAAGTATCCATTGCTAAGACTCAGCAATGCTGCAACTCTCAGCAACCAGCTGAAGATCAGCAGCCGAGAGGCCCTGCACCTA | – | binds | binds | binds |
